Literature values in paper PMC12498412.

Molecular target: Barnase (Bacillus amyloliquefaciens) (UniProt P00648)
Sequence (P00648 48-157): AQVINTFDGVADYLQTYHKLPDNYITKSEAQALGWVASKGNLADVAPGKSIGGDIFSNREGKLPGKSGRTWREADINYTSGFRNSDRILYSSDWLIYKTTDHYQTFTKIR

Barstar, sequence (P11540 2-90): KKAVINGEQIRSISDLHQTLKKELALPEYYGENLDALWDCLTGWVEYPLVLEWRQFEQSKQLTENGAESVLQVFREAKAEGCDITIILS

- Kd: 64 nM
Substance: Barstar (from UniProt P11540)
